Data as given in the supplement of paper PMC10567573.

B1: TRAF3IP2 (parent)
chain: KQGSMNFRFIPVLFPNAKKEHVPT

Variants of: B1
Assay: protein stability index of a GFP-peptide fusion (GPS, HEK-293T) (PSI 1-6); higher = more stable
Details: c terminus: a fixed tail appended
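Also: lentivirally expressed fusions sorted by FACS into six bins by GFP to DsRed ratio, PSI derived from sequencing read proportions per bin multiplied by bin number.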

Variant | protein stability index
KQGSMNFRFIPVLFPTAKKEHVPT | 1.7
KQGSMNFRFIPVLFPAAKKEHVPT | 1.75
KQGSMNFRFIPVLFPWAKKEHVPT | 2
KQGSMNFRFIPVLFPGAKKEHVPT | 2.08
KQGSMNFRFIPVLFPRAKKEHVPT | 2.59
KQGSMNFRFIPVLFPCAKKEHVPT | 1.89
KQGSMNFRFIPVLFPEAKKEHVPT | 1.85
KQGSMNFRFIPVLFPPAKKEHVPT | 1.92
KQGSMNFRFIPVLFPLAKKEHVPT | 1.66
KQGSMNFRFIPVLVPNAKKEHVPT | 2.3
KQGSMNFRFIPVLQPNAKKEHVPT | 2.71
KQGSMNFRFIPVLMPNAKKEHVPT | 2.56
KQGSMNFRFIPVLWPNAKKEHVPT | 2.46
KQGSMNFRFIPVLPPNAKKEHVPT | 2.71
KQGSMNFRFIPVLTPNAKKEHVPT | 2.76
KQGSMNFRFIPVLCPNAKKEHVPT | 1.87
KQGSMNFRFIGVLFPNAKKEHVPT | 2.35
KQGSMNFRFIKVLFPNAKKEHVPT | 2.02
KQGSMNFRFILVLFPNAKKEHVPT | 2.75
KQGSMNFRFISVLFPNAKKEHVPT | 1.36
KQGSMNFRFIHVLFPNAKKEHVPT | 2.14
KQGSMNFRFIWVLFPNAKKEHVPT | 2.25
KQGSMNFRFIMVLFPNAKKEHVPT | 2.98
KQGSMNFRFICVLFPNAKKEHVPT | 3.83

Variant | protein stability index
KQGSMNFRFIVVLFPNAKKEHVPT | 2.91
KQGSMNFRFINVLFPNAKKEHVPT | 1.7
KQGSMNFRFIYVLFPNAKKEHVPT | 3.97
KQGSMNFRFIPVLFPNAEKEHVPT | 2.15
KQGSMNFRFIPVLFPNAPKEHVPT | 1.77
KQGSMNFRFIPVLFPNACKEHVPT | 1.71
KQGSMNFRFIPVLFPNAIKEHVPT | 2.27
KQGSMNFRFIPVLFPNAQKEHVPT | 1.77
KQGSMNFRFIPVLFPNAHKEHVPT | 1.89
KQGSMNFRFIPVLFPNAMKEHVPT | 1.76
KQGSMNQRFIPVLFPNAKKEHVPT | 3.19
KQGSMNHRFIPVLFPNAKKEHVPT | 2.87
KQGSMNMRFIPVLFPNAKKEHVPT | 2.32
KQGSMNYRFIPVLFPNAKKEHVPT | 2.59
KQGSMNNRFIPVLFPNAKKEHVPT | 2.92
KQGSMNARFIPVLFPNAKKEHVPT | 2.95
KQGSMNVRFIPVLFPNAKKEHVPT | 2.13
KQGSMNWRFIPVLFPNAKKEHVPT | 2.23
KQGSMNCRFIPVLFPNAKKEHVPT | 2.38
KQGSMNGRFIPVLFPNAKKEHVPT | 3.01
KNGSMNFRFIPVLFPNAKKEHVPT | 1.91
KPGSMNFRFIPVLFPNAKKEHVPT | 1.93
KEGSMNFRFIPVLFPNAKKEHVPT | 2.13
KFGSMNFRFIPVLFPNAKKEHVPT | 1.87

Variant | protein stability index
KKGSMNFRFIPVLFPNAKKEHVPT | 1.91
KDGSMNFRFIPVLFPNAKKEHVPT | 1.8
KRGSMNFRFIPVLFPNAKKEHVPT | 1.47
KHGSMNFRFIPVLFPNAKKEHVPT | 1.63
KQGSMNFRFIPVLFPNNKKEHVPT | 2
KQGSMNFRFIPVLFPNVKKEHVPT | 1.61
KQGSMNFRFIPVLFPNHKKEHVPT | 1.92
KQGSMNFRFIPVLFPNGKKEHVPT | 2.18
KQGSMNFRFIPVLFPNQKKEHVPT | 2.38
KQGSMNFRFIPVLFPNDKKEHVPT | 2.32
KQGSMNFRFIPVLFPNIKKEHVPT | 1.8
KQGSMNFRFIPVLFPNFKKEHVPT | 1.64
KQGSMNFRFIPVLFPNYKKEHVPT | 1.72
KQVSMNFRFIPVLFPNAKKEHVPT | 2.06
KQTSMNFRFIPVLFPNAKKEHVPT | 2.44
KQPSMNFRFIPVLFPNAKKEHVPT | 1.74
KQASMNFRFIPVLFPNAKKEHVPT | 1.9
KQHSMNFRFIPVLFPNAKKEHVPT | 2.01
KQFSMNFRFIPVLFPNAKKEHVPT | 3.01
KQCSMNFRFIPVLFPNAKKEHVPT | 2.06
KQGSMNFRFIPVLFPNAKKEHVPW | 2.06
KQGSMNFRFIPVLFPNAKKEHVPA | 2.25
KQGSMNFRFIPVLFPNAKKEHVPD | 2.16
KQGSMNFRFIPVLFPNAKKEHVPM | 1.87

Variant | protein stability index
KQGSMNFRFIPVLFPNAKKEHVPK | 2.19
KQGSMNFRFIPVLFPNAKKEHVPF | 1.75
KQGSMNFRFIPVLFPNAKKEHVPP | 2.14
KQGSMNFRFIPVLFPNAKKEHVPG | 2.14
KQGSMNFRFIPVLFPNAKKEHVPN | 1.97
KQGSMNFRFIPVLFPNAKKEHVPQ | 1.92
KQGSMNFRFIPVLFPNAKEEHVPT | 1.99
KQGSMNFRFIPVLFPNAKAEHVPT | 1.66
KQGSMNFRFIPVLFPNAKIEHVPT | 1.59
KQGSMNFRFIPVLFPNAKLEHVPT | 1.78
KQGSMNFRFIPVLFPNAKCEHVPT | 1.7
KQGSMNFRFIPVLFPNAKMEHVPT | 1.59
KQGSMNFRFIPVLFPNAKFEHVPT | 1.98
KQGSMNFRFIPVLFPNAKPEHVPT | 1.6
KQGSMNFRFIPVLFPNAKYEHVPT | 1.99
KQGSMNFRFIPVLFPNAKKHHVPT | 2.03
KQGSMNFRFIPVLFPNAKKLHVPT | 1.67
KQGSMNFRFIPVLFPNAKKWHVPT | 1.9
KQGSMNFRFIPVLFPNAKKAHVPT | 2.11
KQGSMNFRFIPVLFPNAKKKHVPT | 1.68
KQGSMNFRFIPVLFPNAKKYHVPT | 1.77
KQGSMNFRFIPVLFPNAKKTHVPT | 2.05
